From publication PMC11797554 (2024)

What was measured:
SCRM KiDoK peptide [1] = molecular target: T1, SCRM KiDoK peptide (Arabidopsis, UniProt Q9LSE2, biotin); test: BLI
SCRM KiDoK peptide [2] = molecular target: T1, SCRM KiDoK peptide; test: BLI; in presence of kC9
SCRM KiDoK peptide [3] = molecular target: T1, SCRM KiDoK peptide; test: BLI; in presence of kC9; kinetic fit

koff (SCRM KiDoK peptide [1]): 0.0327 s⁻¹
koff (SCRM KiDoK peptide [2]): 0.0178 s⁻¹
Kd (SCRM KiDoK peptide [3]): 1050 nM
B1: MPK6ΔNt (29 to 305) (domain or fragment)
chain: QMPGIENIPATLSHGGRFIQYNIFGNIFEVTAKYKPPIMPIGKGAYGIVCSAMNSETNESVAIKKIANAFDNKIDAKRTLREIKLLRHMDHENIVAIRDIIPPPLRNAFNDVYIAYELMDTDLHQIIRSNQALSEEHCQYFLYQILRGLKYIHSANVLHRDLKPSNLLLNANCDLKICDFGLARVTSESDFMTEYVVTRWYRAPELLLNSSDYTAAIDVWSVGCIFMELMDRKPLFPGRDHVHQLRLLMELIGTPSEEELEFLNENAKRYIRQLPPYPRQSITDKFPTVHPLAIDLIEKMLTFDPRRRITVLDALAHPYLNSLHDISDEPECTIPFNFDFENHALSEEQMKELIYREALAFNPEYQQ
